Laboratory results as given in publication PMC10636567.

Columns and labels:
rat PSD-93-GFP (rat) = rat PSD-93-GFP (rat) (UniProt Q63622); assay: co-IP; HEK293T co-transfected; GFP-tagged MAGUK proteins precipitated with anti-GFP antibody; western blot
rat SAP102-GFP (rat) = rat SAP102-GFP (rat) (UniProt Q62936); assay: as above
rat PSD-95-FLAG (rat) = rat PSD-95-FLAG (rat) (UniProt P31016); assay: co-IP; HEK293T co-transfected; lysis 24 h after transfection in 20 mM Tris-HCl pH 8.0, 1 mM EDTA, 0.5% Fos-Choline-14; PSD-95-FLAG or LGI1-FLAG precipitated with FLAG-M2 agarose, washed with 100 mM NaCl, 1% Triton X-100, eluted with FLAG peptide; western blot, band intensities; n = 3
Chain of rat PSD-95-FLAG (rat) (P31016 whole entry): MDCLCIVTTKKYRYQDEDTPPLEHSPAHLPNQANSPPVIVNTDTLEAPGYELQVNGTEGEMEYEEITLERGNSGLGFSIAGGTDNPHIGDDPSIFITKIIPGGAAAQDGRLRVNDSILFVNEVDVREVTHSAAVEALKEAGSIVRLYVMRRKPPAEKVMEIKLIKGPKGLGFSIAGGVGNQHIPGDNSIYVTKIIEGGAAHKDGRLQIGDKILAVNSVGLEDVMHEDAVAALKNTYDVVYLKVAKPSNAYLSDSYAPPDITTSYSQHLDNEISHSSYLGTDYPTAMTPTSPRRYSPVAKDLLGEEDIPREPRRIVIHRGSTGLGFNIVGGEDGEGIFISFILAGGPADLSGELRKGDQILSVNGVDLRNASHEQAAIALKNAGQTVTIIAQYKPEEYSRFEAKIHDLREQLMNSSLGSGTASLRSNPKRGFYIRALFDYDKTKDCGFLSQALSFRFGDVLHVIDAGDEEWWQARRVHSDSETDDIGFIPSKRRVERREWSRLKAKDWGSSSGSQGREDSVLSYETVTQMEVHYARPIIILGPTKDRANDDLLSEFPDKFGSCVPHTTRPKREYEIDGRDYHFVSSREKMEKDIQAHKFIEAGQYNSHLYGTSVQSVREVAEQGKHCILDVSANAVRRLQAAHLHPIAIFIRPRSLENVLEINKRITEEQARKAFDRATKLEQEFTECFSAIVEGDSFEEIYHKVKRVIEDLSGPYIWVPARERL

[1] = molecular target: human LGI1–FLAG (leucine-rich, glioma inactivated 1 protein) (human) (UniProt O95970); assay: as above
Chain of human LGI1–FLAG (leucine-rich, glioma inactivated 1 protein) (human) (O95970 35-557): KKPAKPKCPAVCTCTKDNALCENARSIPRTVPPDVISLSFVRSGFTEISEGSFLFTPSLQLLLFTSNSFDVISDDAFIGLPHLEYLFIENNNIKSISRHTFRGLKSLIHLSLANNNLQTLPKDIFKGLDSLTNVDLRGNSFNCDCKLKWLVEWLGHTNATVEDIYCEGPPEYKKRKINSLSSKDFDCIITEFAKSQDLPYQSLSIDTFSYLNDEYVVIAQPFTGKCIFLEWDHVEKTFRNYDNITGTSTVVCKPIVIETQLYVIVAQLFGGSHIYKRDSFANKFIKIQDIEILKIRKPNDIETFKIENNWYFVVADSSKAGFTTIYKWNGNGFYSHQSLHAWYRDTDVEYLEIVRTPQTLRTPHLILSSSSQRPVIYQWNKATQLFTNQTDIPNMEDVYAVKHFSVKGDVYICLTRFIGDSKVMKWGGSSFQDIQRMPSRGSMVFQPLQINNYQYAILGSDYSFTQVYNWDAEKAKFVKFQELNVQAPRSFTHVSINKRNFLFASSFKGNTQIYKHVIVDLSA

Chain of rat SAP102-GFP (rat) (Q62936 whole entry): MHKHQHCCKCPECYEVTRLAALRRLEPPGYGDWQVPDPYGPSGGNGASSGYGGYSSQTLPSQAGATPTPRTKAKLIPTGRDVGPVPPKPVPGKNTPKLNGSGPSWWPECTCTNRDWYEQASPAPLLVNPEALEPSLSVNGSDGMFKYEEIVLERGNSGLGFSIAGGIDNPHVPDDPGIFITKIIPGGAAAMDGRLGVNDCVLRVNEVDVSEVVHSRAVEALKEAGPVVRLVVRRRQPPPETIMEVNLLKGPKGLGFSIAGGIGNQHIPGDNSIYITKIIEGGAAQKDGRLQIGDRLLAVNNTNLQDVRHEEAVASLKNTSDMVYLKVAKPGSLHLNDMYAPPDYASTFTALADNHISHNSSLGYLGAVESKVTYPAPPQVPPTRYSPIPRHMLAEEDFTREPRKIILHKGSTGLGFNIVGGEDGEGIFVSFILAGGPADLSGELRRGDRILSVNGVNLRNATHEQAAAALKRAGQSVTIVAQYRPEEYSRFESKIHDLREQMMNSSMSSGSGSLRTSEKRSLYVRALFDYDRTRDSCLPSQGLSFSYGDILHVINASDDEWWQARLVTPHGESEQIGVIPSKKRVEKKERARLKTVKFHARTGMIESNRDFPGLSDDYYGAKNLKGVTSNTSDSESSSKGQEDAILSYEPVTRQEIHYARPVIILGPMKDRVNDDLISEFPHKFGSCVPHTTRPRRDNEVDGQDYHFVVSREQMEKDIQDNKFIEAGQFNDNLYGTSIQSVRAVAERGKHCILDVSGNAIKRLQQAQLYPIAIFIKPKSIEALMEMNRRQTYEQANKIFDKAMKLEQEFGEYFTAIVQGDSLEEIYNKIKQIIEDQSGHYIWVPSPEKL
Chain of rat PSD-93-GFP (rat) (Q63622 whole entry): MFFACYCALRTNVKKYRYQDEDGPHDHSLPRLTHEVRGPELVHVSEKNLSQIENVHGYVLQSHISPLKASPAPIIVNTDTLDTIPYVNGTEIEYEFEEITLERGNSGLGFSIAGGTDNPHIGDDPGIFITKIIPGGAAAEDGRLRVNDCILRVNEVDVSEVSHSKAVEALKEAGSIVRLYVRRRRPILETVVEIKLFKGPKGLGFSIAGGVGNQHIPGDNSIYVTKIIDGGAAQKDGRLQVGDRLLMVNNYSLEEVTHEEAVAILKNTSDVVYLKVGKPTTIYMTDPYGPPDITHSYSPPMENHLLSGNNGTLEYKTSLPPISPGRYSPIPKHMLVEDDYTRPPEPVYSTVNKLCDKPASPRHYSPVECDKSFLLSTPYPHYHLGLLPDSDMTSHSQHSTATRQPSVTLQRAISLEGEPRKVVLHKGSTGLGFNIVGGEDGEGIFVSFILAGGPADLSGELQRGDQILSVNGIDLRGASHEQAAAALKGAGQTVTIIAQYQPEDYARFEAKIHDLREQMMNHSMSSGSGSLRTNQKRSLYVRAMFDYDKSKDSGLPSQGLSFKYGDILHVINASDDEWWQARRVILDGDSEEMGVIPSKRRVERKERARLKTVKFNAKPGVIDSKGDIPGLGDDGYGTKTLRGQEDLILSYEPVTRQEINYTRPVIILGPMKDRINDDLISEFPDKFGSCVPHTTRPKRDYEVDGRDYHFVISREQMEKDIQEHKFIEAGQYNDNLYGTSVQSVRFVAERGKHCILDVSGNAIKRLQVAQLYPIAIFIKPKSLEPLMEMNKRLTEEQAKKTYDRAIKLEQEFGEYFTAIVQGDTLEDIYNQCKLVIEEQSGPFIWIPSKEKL

Row | Substance | co-immunoprecipitated amount, percent of wild type (rat PSD-93-GFP (rat)) | co-immunoprecipitated amount, percent of wild type (rat SAP102-GFP (rat)) | co-immunoprecipitated amount, percent of wild type (rat PSD-95-FLAG (rat)) | co-immunoprecipitated amount, percent of wild type [1]
1 | human ADAM22 S905F variant (from UniProt Q9P0K1-1 26-906) (receptor) | 20% | 20% | 20% | 75%
2 | ADAM22 C401Y variant (from UniProt Q9P0K1 26-906) (receptor) |  |  |  | 40%
